Measurements from patent US20210238276A1 (INTEGRAL MOLECULAR, published 2021).
Read-outs that look alike come from different tables or passages of the source.

T1: hsGLUT4 L260A (human, UniProt P14672 1-509)
T1 sequence: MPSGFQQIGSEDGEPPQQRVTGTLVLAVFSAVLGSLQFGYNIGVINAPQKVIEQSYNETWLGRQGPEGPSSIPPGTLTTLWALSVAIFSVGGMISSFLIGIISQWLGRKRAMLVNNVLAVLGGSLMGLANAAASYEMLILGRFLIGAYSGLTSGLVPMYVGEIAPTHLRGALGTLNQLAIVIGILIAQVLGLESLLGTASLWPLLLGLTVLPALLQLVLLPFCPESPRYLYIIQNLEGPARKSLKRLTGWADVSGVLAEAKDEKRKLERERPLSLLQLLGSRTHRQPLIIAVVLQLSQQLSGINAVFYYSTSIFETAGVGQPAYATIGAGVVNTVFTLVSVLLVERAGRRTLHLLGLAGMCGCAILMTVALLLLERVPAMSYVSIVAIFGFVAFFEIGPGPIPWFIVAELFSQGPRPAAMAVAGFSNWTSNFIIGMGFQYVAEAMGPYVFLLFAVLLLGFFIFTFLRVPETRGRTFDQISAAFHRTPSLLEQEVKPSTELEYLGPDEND

T2: hsGLUT4 F307A (human, UniProt P14672 1-509)
T2 sequence: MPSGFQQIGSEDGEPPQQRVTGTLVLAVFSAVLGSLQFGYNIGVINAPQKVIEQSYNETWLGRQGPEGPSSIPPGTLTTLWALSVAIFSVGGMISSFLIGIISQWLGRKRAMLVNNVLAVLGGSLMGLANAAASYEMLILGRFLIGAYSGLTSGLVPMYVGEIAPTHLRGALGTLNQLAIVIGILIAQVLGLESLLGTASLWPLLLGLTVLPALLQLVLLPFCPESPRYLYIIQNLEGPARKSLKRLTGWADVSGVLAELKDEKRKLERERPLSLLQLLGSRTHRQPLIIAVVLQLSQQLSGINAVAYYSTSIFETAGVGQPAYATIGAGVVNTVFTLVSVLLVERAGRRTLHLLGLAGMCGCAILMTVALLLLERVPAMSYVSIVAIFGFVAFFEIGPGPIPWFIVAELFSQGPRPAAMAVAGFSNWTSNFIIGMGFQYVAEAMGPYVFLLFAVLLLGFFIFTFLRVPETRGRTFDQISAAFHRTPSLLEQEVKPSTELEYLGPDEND

T3: hsGLUT4 E315A (human, UniProt P14672 1-509)
T3 sequence: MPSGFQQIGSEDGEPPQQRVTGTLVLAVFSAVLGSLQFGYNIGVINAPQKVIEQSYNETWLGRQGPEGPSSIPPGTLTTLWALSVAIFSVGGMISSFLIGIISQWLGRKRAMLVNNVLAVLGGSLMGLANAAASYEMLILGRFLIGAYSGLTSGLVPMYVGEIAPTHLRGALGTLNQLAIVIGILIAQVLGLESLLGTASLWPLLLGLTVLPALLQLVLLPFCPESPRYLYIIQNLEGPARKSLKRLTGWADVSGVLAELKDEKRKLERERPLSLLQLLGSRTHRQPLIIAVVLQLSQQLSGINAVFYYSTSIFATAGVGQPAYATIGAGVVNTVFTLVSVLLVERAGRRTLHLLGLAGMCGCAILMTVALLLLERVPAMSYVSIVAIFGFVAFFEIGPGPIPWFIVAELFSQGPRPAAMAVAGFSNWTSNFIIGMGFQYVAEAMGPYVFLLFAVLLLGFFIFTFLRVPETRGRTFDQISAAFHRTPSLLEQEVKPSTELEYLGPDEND

T4: human GLUT4 (hsGLUT4), wild type (UniProt P14672 1-509)
T4 chain: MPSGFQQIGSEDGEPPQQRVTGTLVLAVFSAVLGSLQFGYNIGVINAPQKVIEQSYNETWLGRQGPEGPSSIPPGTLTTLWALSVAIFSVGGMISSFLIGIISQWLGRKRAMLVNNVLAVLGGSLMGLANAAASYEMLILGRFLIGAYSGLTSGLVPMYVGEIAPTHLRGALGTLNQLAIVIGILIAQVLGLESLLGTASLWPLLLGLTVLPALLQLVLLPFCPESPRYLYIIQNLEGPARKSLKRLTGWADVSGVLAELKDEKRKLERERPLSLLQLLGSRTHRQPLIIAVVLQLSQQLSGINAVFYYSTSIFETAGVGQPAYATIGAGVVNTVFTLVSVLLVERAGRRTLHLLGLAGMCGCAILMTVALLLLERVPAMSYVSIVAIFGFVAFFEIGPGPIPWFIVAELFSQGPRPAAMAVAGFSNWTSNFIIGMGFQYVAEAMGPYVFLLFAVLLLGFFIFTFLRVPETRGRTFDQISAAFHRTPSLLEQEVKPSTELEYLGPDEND


Experiments:
hsGLUT4 L260A = target: T1, hsGLUT4 L260A; assay: flow cytometry, alanine-scan library in HEK-293T
How it was run: (§1)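 HEK-293T cells expressing individual GLUT4 alanine mutants were stained 48 h post-transfection with anti-GLUT4 scFv MAbs (2 μg/ml), then biotinylated secondary and streptavidin-PerCP, and read by high-throughput flow cytometry. Where used, cytochalasin B (10 uM final) was given for 30 min before and during primary antibody staining.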

hsGLUT4 F307A = target: T2, hsGLUT4 F307A; assay: flow cytometry, alanine-scan library in HEK-293T
How it was run: as §1

hsGLUT4 E315A = target: T3, hsGLUT4 E315A; assay: flow cytometry, alanine-scan library in HEK-293T
How it was run: as §1

[1] = target: T4, human GLUT4 (hsGLUT4), wild type; assay: BLI; avid
[2] = target: T4, human GLUT4 (hsGLUT4), wild type; assay: BLI; avid

Row | Molecule | % of binding to wild type GLUT4 (hsGLUT4 L260A) [%] | % of binding to wild type GLUT4 (hsGLUT4 F307A) [%] | % of binding to wild type GLUT4 (hsGLUT4 E315A) [%] | Kd [1] [nM] | Kd [2] [nM]
1 | 1F8 (antibody) | 98 | 84 | 93 | – | –
2 | AB108 (Fc fusion, Bivalent scFv-Fc; also called MAb AB108; not shown: Fc fragment of human IgG1, cloned in frame with the scFv) scFv: ALTQPSSVSANLGGTVKITCSGSSGSYGWYQQKAPGSAPVTLIYRNDKRPSDIPSRFSGSESGSTGTLTITGVQAEDEAVYFCGGYDSSAGYAAFGAGTTLTVLGQSSRSSGGGGSSGGGGSAVTLDESGGGLQTPGGALSLVCKASGFTFSSHGMGWVRQAPGKGLEWVGSISTGRYTFYAPAVKGRATISRDNGQSTLRLQLNNLRAEDTGTYYCTKCAGLNGCGGGEIDAWGHGTEVIVSS | 108 | 74 | 96 | 1.8 | 1.8
3 | AB101 (scFv, Chicken-derived clone used as a control; the four lead clones were tested as scFv-human IgG1 Fc; also called MAb AB101) scFv: ALTQPSSVSANPGETVKITCSGSSNSYGWYQQKSPGSAPVTVIYYNDKRPSDIPSRFSGSKSDSTHTLTITGVRAEDEAVYFCGSYDSTYVGIFGAGTTLTVLGQSSRSSGGGGSSGGGGSAVTLDESGGGLQTPGGTLSLVCKASGFTFSSNAMGWVRQAPGKGLEWVAGISSDGRYTKYGSAVKGRATISRDNGQSTVRLQLNNLRAEDTGTYFCAKAFGNNYRRIYAGQIDAWGHGTEVIVSS | 112 | 82 | 130 | – | –
4 | AB111 (Fc fusion, Bivalent scFv-Fc; also called MAb AB111; not shown: Fc fragment of human IgG1, cloned in frame with the scFv) scFv: ALTQPSSVSANPGETVKITCSGSGSWYGWFQQKSPGSAPVTVIYSNDKRPSDIPSRFSGSKSGSTSTLTITGVQVEDEAVYYCGNWDIFGAGTTLTVLGQSSRSSGGGGSSGGGGSAVTLDESGGGLQTPGGALSLVCKASGFTFSSHGMGWVRQAPGKGLEWVASISTGRYTFYAPAVKGRATISRDNGQSTVRLQLNNLRAEDTATYYCTKCAGLNGCGGGEIDAWGHGTEVIVSS | 130 | 108 | 164 | 0.56 | 0.56
